# Publication PMC9966940
# Biological target: SOD1-His (not stated (human or mouse cDNA cloned)) (UniProt P00441)
# Sequence (P00441 whole entry): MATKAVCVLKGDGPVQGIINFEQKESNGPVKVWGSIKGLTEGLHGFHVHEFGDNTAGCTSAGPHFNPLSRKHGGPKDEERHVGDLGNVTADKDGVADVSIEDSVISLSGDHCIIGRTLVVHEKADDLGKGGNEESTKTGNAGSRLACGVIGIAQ
# Chain of YWHAE protein purified by His tag from Pichia pastoris (P62258 whole entry): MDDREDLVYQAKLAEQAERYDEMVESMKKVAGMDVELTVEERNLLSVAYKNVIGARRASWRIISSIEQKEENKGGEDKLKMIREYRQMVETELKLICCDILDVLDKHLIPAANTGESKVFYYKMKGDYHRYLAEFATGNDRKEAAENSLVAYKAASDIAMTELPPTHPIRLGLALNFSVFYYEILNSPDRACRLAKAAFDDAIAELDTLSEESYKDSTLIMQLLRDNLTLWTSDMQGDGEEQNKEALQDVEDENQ
substance,measurement,value
YWHAE protein purified by His tag from Pichia pastoris (from UniProt P62258 1-255) (natural protein),"SOD1 activity of purified SOD1 incubated with purified YWHAE at 1:1 for 0-15 h at 4 °C in SOD1 activity assay buffer, against SOD1 plus buffer; value at 4 h",40%
